Data published in US20220402983A1 (Janssen / Centocor, published 2022).
*1 amine or outer side, *2 acyl side, *3 side chain or, on linkers, in order; H or OH if unused. Bridges are numbered along the chain shown (N, C = ends). [ ]: non-standard residue; d: D form. (N-(imidazol-2-yl)methyl)Asn = N-(imidazol-2-yl)methyl-asparagine, O=C(C[C@H](N[*:1])C(=O)[*:2])NCc1ncc[nH]1; (N-(3-aminophenyl))Asn = N-(3-aminophenyl)-asparagine, O=C(C[C@H](N[*:1])C(=O)[*:2])Nc1cccc(N[*:3])c1; (N-(3-Pyz))Asn = N-pyrazol-3-yl-asparagine, O=C(C[C@H](N[*:1])C(=O)[*:2])Nc1cc[nH]n1; dPhe(3-NH2) = D-3-aminophenylalanine, O=C([C@@H](Cc1cccc(N[*:3])c1)N[*:1])[*:2]; Trp(7-Me) = Cc1cccc2c(C[C@H](N)C(=O)O)c[nH]c12; (N-Pyr)Asn = N-pyrrolidin-3-yl-asparagine; dPhe(4-NH2) = Nc1ccc(C[C@@H](N)C(=O)O)cc1; (N-Pip)Asn = N-piperidin-4-yl-asparagine; 2Nal = N[C@@H](Cc1ccc2ccccc2c1)C(=O)O; AEF = NCCOc1ccc(C[C@H](N)C(=O)O)cc1; αMeF = C[C@](N)(Cc1ccccc1)C(=O)O; 3Pal = N[C@@H](Cc1cccnc1)C(=O)O; Pen = CC(C)(S)[C@H](N)C(=O)O; αMeK = C[C@](N)(CCCCN)C(=O)O; αMeC = C[C@](N)(CS)C(=O)O; Thp = NC1(C(=O)O)CCOCC1; Abu = CC[C@H](N)C(=O)O

T1: human IL-23R (interleukin-23 receptor) (human, UniProt Q5VWK5 24-629)
T1 sequence (looked up): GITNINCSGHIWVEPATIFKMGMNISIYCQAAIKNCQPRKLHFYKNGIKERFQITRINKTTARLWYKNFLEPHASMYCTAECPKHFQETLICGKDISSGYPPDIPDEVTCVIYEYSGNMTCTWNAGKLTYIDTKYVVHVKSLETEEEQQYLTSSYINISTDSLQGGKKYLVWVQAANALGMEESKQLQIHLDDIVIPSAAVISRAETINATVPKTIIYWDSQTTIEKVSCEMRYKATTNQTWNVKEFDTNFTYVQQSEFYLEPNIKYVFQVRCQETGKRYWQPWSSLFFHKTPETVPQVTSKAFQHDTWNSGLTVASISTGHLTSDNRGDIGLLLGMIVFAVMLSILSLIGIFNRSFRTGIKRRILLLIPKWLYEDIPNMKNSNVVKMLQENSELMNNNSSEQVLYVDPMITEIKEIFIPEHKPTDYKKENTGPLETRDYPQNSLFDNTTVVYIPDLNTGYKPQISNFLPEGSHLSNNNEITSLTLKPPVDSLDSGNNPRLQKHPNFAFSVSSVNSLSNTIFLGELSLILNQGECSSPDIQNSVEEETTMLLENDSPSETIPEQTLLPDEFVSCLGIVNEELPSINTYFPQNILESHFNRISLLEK

B1: Compound No. 137 (peptide)
peptide: Ac-[dR][Pen]QTWQ[Pen][AEF][2Nal][Thp]EN[(N-(imidazol-2-yl)methyl)Asn]-NH2
modifications: disulfide 2-7
SMILES: CC(=O)N[C@H](CCCNC(=N)N)C(=O)N[C@@H]1C(=O)N[C@@H](CCC(N)=O)C(=O)N[C@@H]([C@@H](C)O)C(=O)N[C@@H](Cc2c[nH]c3ccccc23)C(=O)N[C@@H](CCC(N)=O)C(=O)N[C@H](C(=O)N[C@@H](Cc2ccc(OCCN)cc2)C(=O)N[C@@H](Cc2ccc3ccccc3c2)C(=O)NC2(C(=O)N[C@@H](CCC(=O)O)C(=O)N[C@@H](CC(N)=O)C(=O)N[C@@H](CC(=O)NCc3ncc[nH]3)C(N)=O)CCOCC2)C(C)(C)SSC1(C)C
B2: Compound No. 133 (peptide)
peptide: Ac-[dR][Pen]QTWQ[Pen][AEF][2Nal][Thp]EN[(N-(3-Pyz))Asn]-NH2
modifications: disulfide 2-7
SMILES: CC(=O)N[C@H](CCCNC(=N)N)C(=O)N[C@@H]1C(=O)N[C@@H](CCC(N)=O)C(=O)N[C@@H]([C@@H](C)O)C(=O)N[C@@H](Cc2c[nH]c3ccccc23)C(=O)N[C@@H](CCC(N)=O)C(=O)N[C@H](C(=O)N[C@@H](Cc2ccc(OCCN)cc2)C(=O)N[C@@H](Cc2ccc3ccccc3c2)C(=O)NC2(C(=O)N[C@@H](CCC(=O)O)C(=O)N[C@@H](CC(N)=O)C(=O)N[C@@H](CC(=O)Nc3cc[nH]n3)C(N)=O)CCOCC2)C(C)(C)SSC1(C)C
B3: Compound No. 114 (peptide)
peptide: Ac-[Pen]NT[Trp(7-Me)]K(Ac)[Pen][AEF][2Nal][αMeK]K(Ac)N[αMeF][dPhe(4-NH2)]-NH2
modifications: disulfide 1-6
SMILES: CC(=O)NCCCC[C@@H]1NC(=O)[C@H](Cc2c[nH]c3c(C)cccc23)NC(=O)[C@H]([C@@H](C)O)NC(=O)[C@H](CC(N)=O)NC(=O)[C@@H](NC(C)=O)C(C)(C)SSC(C)(C)[C@@H](C(=O)N[C@@H](Cc2ccc(OCCN)cc2)C(=O)N[C@@H](Cc2ccc3ccccc3c2)C(=O)N[C@@](C)(CCCCN)C(=O)N[C@@H](CCCCNC(C)=O)C(=O)N[C@@H](CC(N)=O)C(=O)N[C@@](C)(Cc2ccccc2)C(=O)N[C@H](Cc2ccc(N)cc2)C(N)=O)NC1=O
B4: Compound No. 127 (peptide)
peptide: Ac-[dR][Pen]QTWQ[Pen][AEF][2Nal][Thp]EN[(N-Pip)Asn]-NH2
modifications: disulfide 2-7
B5: Compound No. 116 (peptide)
peptide: Ac-[Pen]NT[Trp(7-Me)]K(Ac)[Pen][AEF][2Nal][αMeK]K(Ac)N[αMeF][3Pal]-NH2
modifications: disulfide 1-6
SMILES: CC(=O)NCCCC[C@@H]1NC(=O)[C@H](Cc2c[nH]c3c(C)cccc23)NC(=O)[C@H]([C@@H](C)O)NC(=O)[C@H](CC(N)=O)NC(=O)[C@@H](NC(C)=O)C(C)(C)SSC(C)(C)[C@@H](C(=O)N[C@@H](Cc2ccc(OCCN)cc2)C(=O)N[C@@H](Cc2ccc3ccccc3c2)C(=O)N[C@@](C)(CCCCN)C(=O)N[C@@H](CCCCNC(C)=O)C(=O)N[C@@H](CC(N)=O)C(=O)N[C@@](C)(Cc2ccccc2)C(=O)N[C@@H](Cc2cccnc2)C(N)=O)NC1=O
B6: Compound No. 119 (peptide)
peptide: CNTXQCFXKKNF
modifications: Ac-[Cys]-N-T-[W(7-Me)]-Q-[aMeCys]-Phe[4-(2-aminoethoxy)]-[2-Nal]-[a-MeLys]-[Lys(Ac)]-N-[a-MePhe]-NH2; cyclized: Cys-aMeCys disulfide bond
B7: Compound No. 123 (peptide)
peptide: Ac-[dR][Abu]QTWQC[AEF][2Nal][Thp]EN[αMeF]-NH2
modifications: thioether 2-7
B8: Compound No. 130 (peptide)
peptide: Ac-[dR][Pen]QTWQ[Pen][AEF][2Nal][Thp]EN[(N-(3-aminophenyl))Asn]-NH2
modifications: disulfide 2-7
SMILES: CC(=O)N[C@H](CCCNC(=N)N)C(=O)N[C@@H]1C(=O)N[C@@H](CCC(N)=O)C(=O)N[C@@H]([C@@H](C)O)C(=O)N[C@@H](Cc2c[nH]c3ccccc23)C(=O)N[C@@H](CCC(N)=O)C(=O)N[C@H](C(=O)N[C@@H](Cc2ccc(OCCN)cc2)C(=O)N[C@@H](Cc2ccc3ccccc3c2)C(=O)NC2(C(=O)N[C@@H](CCC(=O)O)C(=O)N[C@@H](CC(N)=O)C(=O)N[C@@H](CC(=O)Nc3cccc(N)c3)C(N)=O)CCOCC2)C(C)(C)SSC1(C)C
B9: Compound No. 115 (peptide)
peptide: Ac-[Pen]NT[Trp(7-Me)]K(Ac)[Pen][AEF][2Nal][αMeK]K(Ac)N[αMeF][dPhe(3-NH2)]-NH2
modifications: disulfide 1-6
SMILES: CC(=O)NCCCC[C@@H]1NC(=O)[C@H](Cc2c[nH]c3c(C)cccc23)NC(=O)[C@H]([C@@H](C)O)NC(=O)[C@H](CC(N)=O)NC(=O)[C@@H](NC(C)=O)C(C)(C)SSC(C)(C)[C@@H](C(=O)N[C@@H](Cc2ccc(OCCN)cc2)C(=O)N[C@@H](Cc2ccc3ccccc3c2)C(=O)N[C@@](C)(CCCCN)C(=O)N[C@@H](CCCCNC(C)=O)C(=O)N[C@@H](CC(N)=O)C(=O)N[C@@](C)(Cc2ccccc2)C(=O)N[C@H](Cc2cccc(N)c2)C(N)=O)NC1=O
B10: Compound No. 118 (peptide)
peptide: Ac-CNT[Trp(7-Me)]K(Ac)[αMeC][AEF][2Nal][αMeK]K(Ac)N[αMeF]-NH2
modifications: disulfide 1-6
SMILES: CC(=O)NCCCC[C@@H]1NC(=O)[C@H](Cc2c[nH]c3c(C)cccc23)NC(=O)[C@H]([C@@H](C)O)NC(=O)[C@H](CC(N)=O)NC(=O)[C@@H](NC(C)=O)CSSC[C@@](C)(C(=O)N[C@@H](Cc2ccc(OCCN)cc2)C(=O)N[C@@H](Cc2ccc3ccccc3c2)C(=O)N[C@@](C)(CCCCN)C(=O)N[C@@H](CCCCNC(C)=O)C(=O)N[C@@H](CC(N)=O)C(=O)N[C@@](C)(Cc2ccccc2)C(N)=O)NC1=O
B11: Compound No. 121 (peptide)
peptide: Ac-CNTWK(Ac)[αMeC][AEF][2Nal][αMeK]K(Ac)N[Thp]-NH2
modifications: disulfide 1-6
SMILES: CC(=O)NCCCC[C@@H]1NC(=O)[C@H](Cc2c[nH]c3ccccc23)NC(=O)[C@H]([C@@H](C)O)NC(=O)[C@H](CC(N)=O)NC(=O)[C@@H](NC(C)=O)CSSC[C@@](C)(C(=O)N[C@@H](Cc2ccc(OCCN)cc2)C(=O)N[C@@H](Cc2ccc3ccccc3c2)C(=O)N[C@@](C)(CCCCN)C(=O)N[C@@H](CCCCNC(C)=O)C(=O)N[C@@H](CC(N)=O)C(=O)NC2(C(N)=O)CCOCC2)NC1=O
B12: Compound No. 122 (peptide)
peptide: Ac-CNTWK(Ac)[αMeC][AEF][2Nal][αMeK]K(Ac)N[αMeF]-NH2
modifications: disulfide 1-6
SMILES: CC(=O)NCCCC[C@@H]1NC(=O)[C@H](Cc2c[nH]c3ccccc23)NC(=O)[C@H]([C@@H](C)O)NC(=O)[C@H](CC(N)=O)NC(=O)[C@@H](NC(C)=O)CSSC[C@@](C)(C(=O)N[C@@H](Cc2ccc(OCCN)cc2)C(=O)N[C@@H](Cc2ccc3ccccc3c2)C(=O)N[C@@](C)(CCCCN)C(=O)N[C@@H](CCCCNC(C)=O)C(=O)N[C@@H](CC(N)=O)C(=O)N[C@@](C)(Cc2ccccc2)C(N)=O)NC1=O
B13: Compound No. 128 (peptide)
peptide: Ac-[dR][Pen]QTWQ[Pen][AEF][2Nal][Thp]EN[(N-Pyr)Asn]-NH2
modifications: disulfide 2-7
B14: Compound No. 124 (peptide)
peptide: Ac-[dR][Pen]NT[Trp(7-Me)]K(Ac)[Pen][AEF][2Nal][Thp]EN[αMeF]-NH2
modifications: disulfide 2-7
SMILES: CC(=O)NCCCC[C@@H]1NC(=O)[C@H](Cc2c[nH]c3c(C)cccc23)NC(=O)[C@H]([C@@H](C)O)NC(=O)[C@H](CC(N)=O)NC(=O)[C@@H](NC(=O)[C@@H](CCCNC(=N)N)NC(C)=O)C(C)(C)SSC(C)(C)[C@@H](C(=O)N[C@@H](Cc2ccc(OCCN)cc2)C(=O)N[C@@H](Cc2ccc3ccccc3c2)C(=O)NC2(C(=O)N[C@@H](CCC(=O)O)C(=O)N[C@@H](CC(N)=O)C(=O)N[C@@](C)(Cc3ccccc3)C(N)=O)CCOCC2)NC1=O
B15: Compound No. 120 (peptide)
peptide: CNTXQCFXKKNX
modifications: Ac-[Cys]-N-T-[W(7-Me)]-Q-[aMeCys]-Phe[4-(2-aminoethoxy)]-[2-Nal]-[a-MeLys]-[Lys(Ac)]-N-[THP]-NH2; cyclized: Cys-aMeCys disulfide bond
B16: Compound No. 117 (peptide)
peptide: Ac-CNT[Trp(7-Me)]K(Ac)[αMeC][AEF][2Nal][αMeK]K(Ac)N[Thp]-NH2
modifications: disulfide 1-6
SMILES: CC(=O)NCCCC[C@@H]1NC(=O)[C@H](Cc2c[nH]c3c(C)cccc23)NC(=O)[C@H]([C@@H](C)O)NC(=O)[C@H](CC(N)=O)NC(=O)[C@@H](NC(C)=O)CSSC[C@@](C)(C(=O)N[C@@H](Cc2ccc(OCCN)cc2)C(=O)N[C@@H](Cc2ccc3ccccc3c2)C(=O)N[C@@](C)(CCCCN)C(=O)N[C@@H](CCCCNC(C)=O)C(=O)N[C@@H](CC(N)=O)C(=O)NC2(C(N)=O)CCOCC2)NC1=O

What follows are binders tested against T1, human IL-23R (interleukin-23 receptor) (assay: cell-based or functional assay).

PBMC pSTAT3 IC50 (nM) | Binder
14 nM | B1
21 nM | B2
12 nM | B3
48 nM | B4
20 nM | B5
5.3 nM | B6
11 nM | B7
9.2 nM | B8
39 nM | B9
30 nM | B10
41 nM | B11
54 nM | B12
51 nM | B13
11 nM | B14
4.9 nM | B15
7.1 nM | B16
